Literature values as cited in PMC11528372.

How the values were obtained:
Details in all cases: cited from earlier work
Asp97 = Asp97 (UniProt position 97, VFRYIDWLLTV)
Asp121 = Asp121 (UniProt position 121, AYRYVDWLLTV)
Asp85 = Asp85 (UniProt position 98, WARYADWLFTT)
Asp74 = Asp74 (UniProt position 74, WGRYIDWVVTT)

Green-absorbing proteorhodopsin (GPR) (uncultured marine gamma proteobacterium EBAC31A08)
pKa (Asp97): ~7.9

Gloeobacter rhodopsin (GR) (Gloeobacter violaceus PCC 7421)
pKa (Asp121): ~5.9

Bacteriorhodopsin (BR) (Halobacterium salinarum)
pKa (Asp85): ~2.6

Cyanorhodopsin N2098R (Calothrix sp. NIES-2098 rhodopsin) (Calothrix sp. NIES-2098)
pKa (Asp74): <2.0
